Experimental findings from patent US20050164361A1 (published 2005) are described below.

Where no end group is shown, it is not given here.

Series [1] concerns the molecule itself. The experiment in a line: fibril formation kinetics (self-assembly), FIG. 5B.
Series [2] deals with the molecule itself. The experiment in a line: self-assembly into a β-sheet bilayer, FIG. 8.
Series [3] concerns the molecule itself. Briefly: fibril formation kinetics (self-assembly), FIG. 5A.

B1: Aβ(10-21)H13Q (SEQ ID NO: 3) (peptide)
peptide: YEVQHQKLVFFA
notes: Aβ(10-21) with a modified amino acid residue 13 (H13Q)
As for B1, the binding result in series [1] is given as “binds”.

B2: Aβ(16-22) (amino acid residues 16-22 of SEQ ID NO: 1), CH3CO-KLVFFAE-NH2 (peptide)
peptide: Ac-KLVFFAE-NH2
modifications: also: self-assembles into β-sheets, nanotubes
notes: Assembles with itself into β-sheets, a rectangular bilayer, helical ribbons and nanotubes
B2: the binding result in series [2] is given as “binds”.

B3: Aβ(10-21) (amino acid residues 10-21 of SEQ ID NO: 1) (peptide)
peptide: YEVHHQKLVFFA
modifications: not fully specified
notes: Segment of β-amyloid that assembles with itself into fibrils; Many copies stand in the assembly
On to B3, for which the binding result in series [3] is listed as “binds”.
